Consider six molecules from patent publication US20100196392A1 (Kyowa Kirin, published 2010).

Assay [1] addresses T1, mouse ASCT2-myc/His, expressed on CHO cells (mouse, UniProt P51912 1-553).
T1 construct: also called mouse ASCT2/CHO
T1 sequence: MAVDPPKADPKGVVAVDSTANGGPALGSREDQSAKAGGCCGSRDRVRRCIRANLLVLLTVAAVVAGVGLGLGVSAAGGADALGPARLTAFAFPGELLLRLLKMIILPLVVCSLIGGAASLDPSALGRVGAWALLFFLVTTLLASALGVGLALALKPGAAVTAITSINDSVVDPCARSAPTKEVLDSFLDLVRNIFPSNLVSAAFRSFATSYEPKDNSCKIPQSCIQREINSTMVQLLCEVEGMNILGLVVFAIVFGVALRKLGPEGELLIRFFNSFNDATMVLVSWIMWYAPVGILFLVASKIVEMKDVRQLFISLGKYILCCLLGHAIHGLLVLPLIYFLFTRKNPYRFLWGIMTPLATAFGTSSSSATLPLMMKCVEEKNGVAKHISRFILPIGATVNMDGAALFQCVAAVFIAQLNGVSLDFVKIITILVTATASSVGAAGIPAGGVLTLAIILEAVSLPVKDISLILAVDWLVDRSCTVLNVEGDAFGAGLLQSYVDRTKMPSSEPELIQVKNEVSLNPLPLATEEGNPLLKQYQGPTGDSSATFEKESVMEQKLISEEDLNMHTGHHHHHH
Briefly: flow cytometry on mouse ASCT2/CHO cells. (A flow cytometer gives signals particle by particle.)

For assay [2], the target named is T2, human ASCT2 (system ASC amino acid transporter 2), endogenous on human cancer cell lines KMS-11, OPM-2, WiDr … (human, UniProt Q15758 1-541).
T2 construct: also called SLC1A5
T2 sequence: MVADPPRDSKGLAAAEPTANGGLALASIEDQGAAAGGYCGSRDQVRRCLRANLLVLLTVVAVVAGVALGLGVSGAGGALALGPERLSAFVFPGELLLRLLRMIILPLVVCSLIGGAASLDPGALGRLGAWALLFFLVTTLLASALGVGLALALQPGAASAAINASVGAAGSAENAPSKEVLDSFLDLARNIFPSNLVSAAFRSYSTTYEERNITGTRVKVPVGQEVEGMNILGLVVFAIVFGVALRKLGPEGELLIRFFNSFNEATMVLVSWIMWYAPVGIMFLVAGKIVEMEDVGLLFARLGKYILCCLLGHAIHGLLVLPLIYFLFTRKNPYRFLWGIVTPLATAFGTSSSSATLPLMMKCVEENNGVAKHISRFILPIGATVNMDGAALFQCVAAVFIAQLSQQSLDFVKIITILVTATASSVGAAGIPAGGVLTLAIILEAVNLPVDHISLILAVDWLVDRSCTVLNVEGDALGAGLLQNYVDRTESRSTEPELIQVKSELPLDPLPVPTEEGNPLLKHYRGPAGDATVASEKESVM
Briefly: flow cytometry on KMS-11 cells. The method, then: (§1) The human ASCT2-myc/His gene-introduced CHO cell obtained in Example 2, the vector-introduced CHO cell and the multiple myeloma cell line KMS-11 (HSRRB No. JCRB1179) were respectively cultured in a 5% CO₂ incubator for 3 to 4 days at 37° C. The human ASCT2-myc/His gene-introduced CHO cells and the vector-introduced CHO cells were peeled off with a 0.02% EDTA solution (manufactured by Nacalai Tesque) and washed with a mixed solution of PBS, 0.02% EDTA and 0.05% sodium azide. Additionally, in order to avoid the non-specific adsorption of antibodies, the cells were blocked for 30 minutes at ice temperature using 1% BSA-PBS for the human ASCT2-myc/His gene-introduced CHO cells and the vector-introduced CHO cells, and using 100 μg/mL of human IgG (manufactured by Sigma) for KMS-11. The cells were seeded into a 96-well U-bottom plate so as to give a density of 1×10⁵ to 5×10⁵ cells/100 μL/well and centrifuged at 1,500 rpm for 5 minutes (05PR-22, manufactured by Hitachi Koki) and then the supernatant was removed. The test substances as the primary antibody, i.e., the purified antibodies and rat IgG2a-UNLB (negative control, manufactured by Beckman Coulter) or KM511 {negative control, anti-G-CSF derivative antibody, [Agric. Biol. Chem., 53, 1095 (1989)], mouse IgG1} were diluted to give a final concentration of 10 μg/mL in a mixed solution (hereinafter, referred to as “Dilution Solution A”) of 1% BSA-PBS, 0.02% EDTA and 0.05% sodium azide and the resulting solution was added at the volume of 100 μL/well, followed by reaction for 60 minutes at ice temperature. […] Washing with Dilution Solution A was carried out three times again, the cells were suspended in PBS and the fluorescence intensity was measured by a flow cytometer (Cytomics FC500 MPL, manufactured by Beckman Coulter).

In assay [3] the target is T3, human ASCT2-myc/His (fusion protein in which myc/His was added to the C-terminal of human ASCT2), expressed … (human, UniProt Q15758 1-541).
T3 construct: Also used as cell lysate in Western blotting and immunoprecipitation; also called ASCT2/CHO; human ASCT2-myc/His gene-introduced CHO cells
T3 sequence: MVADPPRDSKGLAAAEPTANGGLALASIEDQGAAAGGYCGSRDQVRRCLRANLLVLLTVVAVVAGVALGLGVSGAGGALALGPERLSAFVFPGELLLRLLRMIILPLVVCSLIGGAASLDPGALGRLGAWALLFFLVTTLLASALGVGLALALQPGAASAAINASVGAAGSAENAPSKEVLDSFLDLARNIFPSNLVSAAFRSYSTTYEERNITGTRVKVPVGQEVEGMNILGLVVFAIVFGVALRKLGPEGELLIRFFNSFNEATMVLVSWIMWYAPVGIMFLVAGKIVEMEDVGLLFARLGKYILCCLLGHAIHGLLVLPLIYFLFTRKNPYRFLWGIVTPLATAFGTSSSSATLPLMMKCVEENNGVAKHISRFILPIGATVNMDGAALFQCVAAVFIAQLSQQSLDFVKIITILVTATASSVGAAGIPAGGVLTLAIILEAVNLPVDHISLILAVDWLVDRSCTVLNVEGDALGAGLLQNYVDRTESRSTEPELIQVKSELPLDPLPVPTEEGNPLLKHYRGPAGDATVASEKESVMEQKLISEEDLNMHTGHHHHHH
Nature of the assay: flow cytometry on human ASCT2-myc/His CHO cells. The method, then: as §1

For assay [4], the target named is T2, human ASCT2 (system ASC amino acid …). Nature of the assay: flow cytometry on OPM-2 cells, 0.01 to 10 ug/mL. On the procedure: (§2) Each of the human ASCT2-myc/His gene-introduced CHO cell obtained in Example 2, and the multiple myeloma cell line OPM-2 (DSMZ Accession No. ACC50) was cultured in a 5% CO₂ incubator for 3 to 4 days at 37° C. The human ASCT2-myc/His gene-introduced CHO cells were peeled off with a 0.02% EDTA solution (manufactured by Nacalai Tesque), and in order to avoid the non-specific adsorption of antibodies, the cells were blocked for 30 minutes at ice temperature using 1% BSA-PBS. The cells were seeded into a 96-well U-bottom plate so as to give a density of 1×10⁵ to 5×10⁵ cells/100 μL/well. The plates were centrifugation at 1,500 rpm for 5 minutes (05PR-22, manufactured by Hitachi Koki), and then the supernatant was removed. As the primary antibody, the purified antibody which was a test substance was diluted to give a final concentration of 0.01 μg/mL to 10 μg/mL in 1% BSA-PBS, and dispensed to the plate at 100 μL/well, followed by reaction at ice temperature for 60 minutes. After washing the cells with 1% BSA-PBS, FITC-labeled anti-human immunoglobulin G (H+L) (manufactured by Jackson Laboratories) diluted with 1% BSA-PBS was added as the secondary antibody, followed by reaction at ice temperature for 30 minutes under shading. The cells were washed with 1% BSA-PBS and then suspended in PBS. The fluorescence intensity of the cells was measured by a flow cytometer (Cytomics FC500 MPL, manufactured by Beckman Coulter).

In assay [5] the target is T3, human ASCT2-myc/His (fusion protein in …). Nature of the assay: flow cytometry on human ASCT2-myc/His CHO cells, 0.01 to 10 ug/mL. The method, then:
as §2

Numbering of substitutions follows the chain as printed.

B1: anti-ASCT2 monoclonal antibody KM4018 (antibody, V domains shown)
VH: EVQLVESGGGLVQSGRSIRLSCAASGFSFSNYYMAWVRQAPSKGLEWVASITKGGGNTYYRDSVKGRFTFSRDNAKSTLYLQMDSLRSEDTATYYCARQVTIAAVSTSYFDSWGQGVMVTVSS
VL: DIVLTQSPALAVSLGQRATISCKTNQKVDYYGNSYVYWYQQKPGQQPKLLIYLASNLASGIPARFSGRGSGTDFTLTIDPVEADDTATYYCQQSRNLPYTFGAGTKLELKR
notes: Hybridoma antibody
On to B1, for which the binding result in assay [1] is given as “no binding”; in assay [2] it was “binds”; in assay [3], “binds”.

B2: anti-ASCT2 human chimeric antibody cKM4018 (antibody, V domains shown)
VH: B1 VH
VL: B1 VL
notes: VH and VL of KM4018 were inserted into vector pKANTEX93, which carries human CH and CL; The SDS-PAGE pattern was consistent with the IgG class
B2: the binding result in assay [4] and in assay [5] was “binds” in each case.

B3: anti-ASCT2 monoclonal antibody KM4008 (hybridoma KM4008, FERM BP-10962) (antibody, V domains shown)
VH: QIQLVQSGPELKKPGETVKISCKASGYTFTTFGMSWVKQVPGKGLKWMGWIHTYAGVPIYGDDFKGRFAFSLETSASTAYLQINNVKNEDTATYFCARRSDNYRYFFDYWGQGTTLTVSS
VL: DIQMTQTTSSLSASLGDRVTISCRASQDIRNYLNWYQRKPHGTVKLLIYYTSRLHSGVPSRFSGSGSGTDYSLTISNLEQEDIATYFCQQGHTLPPTFGGGTKLEIKR
notes: Mouse monoclonal antibody
In the case of B3, the binding result in assay [2] and in assay [3] was “binds” each time.

B4: anti-ASCT2 human chimeric antibody cKM4008 (antibody, V domains shown)
VH: B3 VH
VL: B3 VL
notes: VH and VL of KM4008 were inserted into vector pKANTEX93, which carries human CH and CL; The SDS-PAGE pattern was consistent with the IgG class
Consider B4, for which the binding result in assay [4] and in assay [5] was “binds” each time.

B5: anti-ASCT2 monoclonal antibody KM4012 (hybridoma KM4012, FERM BP-10963) (antibody, V domains shown)
VH: B3 VH with F32Y, V40T, A55S, F64S, A76G, T78I, N102G
VL: B3 VL with T7I, R38Q, H41D, H92N
notes: Hybridoma antibody
Take B5: the binding result in assay [2] and in assay [3] was “binds” throughout.

B6: anti-ASCT2 human chimeric antibody cKM4012 (antibody, V domains shown)
VH: B3 VH with F32Y, V40T, A55S, F64S, A76G, T78I, N102G
VL: B3 VL with T7I, R38Q, H41D, H92N
notes: VH and VL of KM4012 were inserted into vector pKANTEX93, which carries human CH and CL; The SDS-PAGE pattern was consistent with the IgG class
For B6, the binding result in assay [4] and in assay [5] was “binds” each time.
